B1: HCV core protein, full-length (capsid) (other)
chain: MSTNPKPQRKTKRNTNRRPQDVKFPGGGQIVGGVYLLPRRGPRLGVRATRKTSERSQPRGRRQPIPKARRPEGRTWAQPGYPWPLYGNEGCGWAGWLLSPRGSRPSWGPTDPRRRSRNLGKVIDTLTCGFADLMGYIPLVGAPLGGAARALAHGVRVLEDGVNYATGNLPGCSFSIFLLALLSCLTVPASA
notes: mature; also called capsid protein; p22
B2: truncated HCV capsid protein C-delta-115 (other)
chain: MSTNPKPQRKTKRNTNRRPQDVKFPGGGQIVGGVYLLPRRGPRLGVRATRKTSERSQPRGRRQPIPKARRPEGRTWAQPGYPWPLYGNEGCGWAGWLLSPRGSRPSWGPTDPRRR
notes: also called CD115; CoreD115

Target: the molecule itself
Test: yeast two-hybrid bait-prey matrix (LacZ and HIS3 reporters)

Row | Protein | binding result
1 | B1 | no binding
2 | B2 | binds

— US20020102534A1 (INSTITUT PASTEUR AND INSTITUT NATIONAL DE LA SANTE ET DE LA …, published 2002)
